Measured values taken from PMC6029887 (Cell reports, 2018).

Assays:
[1] = target: Cadherin-11 V3M L20Y Q97H P89E (MYHE) specificity mutant, adhesive fragment (mouse) (mouse); assay: AUC
[2] = target: Cadherin-6 M3V Y20L H97Q E89P (VLQP) specificity mutant, adhesive fragment (mouse) (mouse); assay: AUC
[3] = target: Cadherin-6 Y20L H97Q (LQ) specificity mutant, adhesive fragment (mouse) (mouse); assay: AUC
[4] = target: chimera cad-11EC16EC2 (cadherin-11 EC1 joined to cadherin-6 EC2) (mouse) (UniProt P97326); assay: AUC
[5] = target: Cadherin-11 L20Y Q97H (YH) specificity mutant, adhesive fragment (mouse) (mouse); assay: AUC
[6] = target: chimera cad-6EC111EC2 (cadherin-6 EC1 joined to cadherin-11 EC2) (mouse); assay: AUC
[7] = target: cadherin-18 EC1-EC2 adhesive fragment (mouse), wild-type (mouse); assay: AUC
[8] = target: T1, Cys-tagged cadherin-10 adhesive fragment (mouse) (mouse, UniProt P70408 55-261); assay: SPR
T1 sequence: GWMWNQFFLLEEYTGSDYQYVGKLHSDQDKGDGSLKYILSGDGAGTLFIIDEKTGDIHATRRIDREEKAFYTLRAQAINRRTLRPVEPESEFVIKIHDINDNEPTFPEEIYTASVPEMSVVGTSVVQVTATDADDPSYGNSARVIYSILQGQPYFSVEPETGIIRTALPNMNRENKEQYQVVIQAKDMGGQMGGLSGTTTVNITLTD

[9] = target: T2, Cys-tagged cadherin-6 adhesive fragment (mouse) (mouse, UniProt P97326 54-260); assay: SPR
T2 sequence: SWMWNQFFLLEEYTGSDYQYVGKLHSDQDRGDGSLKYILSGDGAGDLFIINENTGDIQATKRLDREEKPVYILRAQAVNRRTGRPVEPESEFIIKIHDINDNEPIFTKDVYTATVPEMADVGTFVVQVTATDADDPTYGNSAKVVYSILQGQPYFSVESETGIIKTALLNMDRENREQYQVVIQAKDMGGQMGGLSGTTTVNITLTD

AUC = target: the molecule itself; assay: AUC
[10] = target: T3, Cys-tagged cadherin-7 adhesive fragment (mouse) (mouse, UniProt Q8BM92 48-254); assay: SPR
T3 sequence: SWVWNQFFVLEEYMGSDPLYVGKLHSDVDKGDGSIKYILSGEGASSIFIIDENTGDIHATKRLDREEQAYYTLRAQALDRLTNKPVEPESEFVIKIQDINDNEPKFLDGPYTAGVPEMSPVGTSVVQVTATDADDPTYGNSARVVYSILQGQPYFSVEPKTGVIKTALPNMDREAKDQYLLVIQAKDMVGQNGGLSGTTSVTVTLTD

Cadherin-11 V3M L20Y Q97H P89E (MYHE) specificity mutant, adhesive fragment (mouse) (domain or fragment)
Kd [1]: 8.2 µM

Cadherin-6 M3V Y20L H97Q E89P (VLQP) specificity mutant, adhesive fragment (mouse) (domain or fragment)
Kd [2]: 6.73 µM

Cadherin-6 Y20L H97Q (LQ) specificity mutant, adhesive fragment (mouse) (domain or fragment)
Kd [3]: 9.63 µM

chimera cad-11EC16EC2 (cadherin-11 EC1 joined to cadherin-6 EC2) (from UniProt P97326 151-260) (domain or fragment)
Kd [4]: 15.6 µM

Cadherin-11 L20Y Q97H (YH) specificity mutant, adhesive fragment (mouse) (domain or fragment)
Kd [5]: 11.1 µM

chimera cad-6EC111EC2 (cadherin-6 EC1 joined to cadherin-11 EC2) (domain or fragment)
Kd [6]: 5.6 µM

cadherin-18 EC1-EC2 adhesive fragment (mouse), wild-type (domain or fragment)
Kd [7]: 16.8 µM

B1: cadherin-7 EC1-EC2 adhesive fragment (mouse), wild-type (domain or fragment)
chain: SWVWNQFFVLEEYMGSDPLYVGKLHSDVDKGDGSIKYILSGEGASSIFIIDENTGDIHATKRLDREEQAYYTLRAQALDRLTNKPVEPESEFVIKIQDINDNEPKFLDGPYTAGVPEMSPVGTSVVQVTATDADDPTYGNSARVVYSILQGQPYFSVEPKTGVIKTALPNMDREAKDQYLLVIQAKDMVGQNGGLSGTTSVTVTLTD
binding result [8]: binds | binding result [9]: binds | Kd (AUC): 32.2 µM

B2: cadherin-8 EC1-EC3 fragment (mouse), wild-type (domain or fragment)
chain: GWVWNQMFVLEEFSGPEPILVGRLHTDLDPGSKKIKYILSGDGAGTIFQINDITGDIHAIKRLDREEKAEYTLTAQAVDFETNKPLEPPSEFIIKVQDINDNAPEFLNGPYHATVPEMSILGTSVTNVTATDADDPVYGNSAKLVYSILEGQPYFSIEPETAIIKTALPNMDREAKEEYLVVIQAKDMGGHSGGLSGTTTLTVTLTDVNDNPPKFAQSLYHFSVPEDVVLGTAIGRVKANDQDIGENAQSSYDIIDGDGTALFEITSDAQAQDGVIRLRKPLDFETKKSYTLKVEAANIHIDPRFSSRGPFKDTATVKIVVEDADEPPVF
Kd (AUC): 15 µM

B3: cadherin-6 EC1-EC2 adhesive fragment (mouse), wild-type (domain or fragment)
chain: SWMWNQFFLLEEYTGSDYQYVGKLHSDQDRGDGSLKYILSGDGAGDLFIINENTGDIQATKRLDREEKPVYILRAQAVNRRTGRPVEPESEFIIKIHDINDNEPIFTKDVYTATVPEMADVGTFVVQVTATDADDPTYGNSAKVVYSILQGQPYFSVESETGIIKTALLNMDRENREQYQVVIQAKDMGGQMGGLSGTTTVNITLTD
binding result [10]: binds | binding result [8]: binds | Kd (AUC): 3.1 µM

B4: cadherin-10 EC1-EC2 adhesive fragment (mouse), wild-type (domain or fragment)
chain: GWMWNQFFLLEEYTGSDYQYVGKLHSDQDKGDGSLKYILSGDGAGTLFIIDEKTGDIHATRRIDREEKAFYTLRAQAINRRTLRPVEPESEFVIKIHDINDNEPTFPEEIYTASVPEMSVVGTSVVQVTATDADDPSYGNSARVIYSILQGQPYFSVEPETGIIRTALPNMNRENKEQYQVVIQAKDMGGQMGGLSGTTTVNITLTD
binding result [10]: binds | binding result [9]: binds | Kd (AUC): 42.2 µM

B5: cadherin-24 EC1-EC3 fragment (mouse), wild-type (domain or fragment)
chain: SWVWNQFFVIEEYSGPEPVLIGKLHSDVDRGEGRTKYLLTGEGAGTVFVIDEATGNIHVTKSLDREEKAQYVLLAQAVDRASNRPLEPPSEFIIKVQDINDNPPVFPLGPYHATVPEMSNVGTSVIQVTAHDADDPSYGNSAKLVYTVLDGLPFFSVDPQTGVVRTAIPNMDRETQEEFLVVIQAKDMGGHMGGLSGSTTVTVTLSDVNDNPPKFPQSLYQFSVVETAGPGTLVGRLKAQDPDLGDNALVAYSILNGEGSEVFSISTDSQGQDGLLTVRKPLDFETRRSYTFRVEATNTLIDPAYLRRGPFKDVASVRVTVQDAPEPPAF
Kd (AUC): 8.2 µM

B6: cadherin-9 EC1-EC2 adhesive fragment (mouse), wild-type (domain or fragment)
chain: GWMWNQFFLLEEYTGTDTQYVGKLHTDQDKGDGNLKYILTGDGAGNLFVIDENTGDIHAAKRLDREEKSLYILRAKAIDRKTGRQVEPESEFIIKIHDINDNEPKFTKDLYTASVPEMSGVGTSVIQVTATDADDANYGNSAKVVYSILQGQPYFSVDPESGIIKTALPDMSRENKEQYQVVIQAKDMGGQMGGLSGTTTVNITLTDVNNNPPRF
Kd (AUC): 17 µM

B7: cadherin-20 EC1-EC2 adhesive fragment (mouse), wild-type (domain or fragment)
chain: SWVWNQFFVLEEYTGTDPLYVGKLHSDMDRGDGSIKYILSGEGAGIVFTIDDTTGDIHAIQRLDREERAQYTLRAQALDRRTGRPMEPESEFIIKIQDINDNEPKFLDGPYIATVPEMSPVGTSVIQVTATDADDPTYGNSARVVYSILQGQPYFSVDSKTGVIRTALMNMDREAKEYYEVIIQAKDMGGQLGGLAGTTTVNITLSDVNDNPPRF
Kd (AUC): 9.3 µM

B8: cadherin-22 EC1-EC2 adhesive fragment (mouse), wild-type (domain or fragment)
chain: GWVWNQFFVVEEYTGTEPLYVGKIHSDSDEGDGTIKYTISGEGAGTIFLIDELTGDIHATERLDREQKTFYTLRAQARDRATNRLLEPESEFIIKVQDINDSEPRFLHGPYIGSVAELSPTGTSVMQVMASDADDPTYGSSARLVYSVLDGEHHFTVDPKTGVIRTAVPDLDRESQERYEVVIQATDMAGQLGGLSGSTTVTIVVTD
Kd (AUC): 3.9 µM

B9: cadherin-11 EC1-EC2 adhesive fragment (mouse), wild-type (domain or fragment)
chain: GWVWNQFFVIEEYTGPDPVLVGRLHSDIDSGDGNIKYILSGEGAGTIFVIDDKSGNIHATKTLDREERAQYTLMAQAVDRDTNRPLEPPSEFIVKVQDINDNPPEFLHEIYHANVPERSNVGTSVIQVTASDADDPTYGNSAKLVYSILEGQPYFSVEAQTGIIRTALPNMDREAKEEYHVVIQAKDMGGHMGGLSGTTKVTITLTDVNDNPPKF
Kd (AUC): 33.8 µM

B10: cadherin-12 EC1-EC2 adhesive fragment (mouse), wild-type (domain or fragment)
chain: GWVWNQFFVLEEYMGSEPQYVGKLHSDLDKGEGTVKYTLSGDGAGTVFTIDETTGDIHAIRSLDREEKPFYTLRAQAVDIETRKPLEPESEFIIKVQDINDNEPKFLDGPYVASVPEMSPVGAYVLQVKATDADDPTYGNSARVVYSILQGQPYFSIDPKTGVIRTALPNMDREVKEQYQVLIQAKDMGGQLGGLAGTTVVNITLTDVNDNPPRF
Kd (AUC): 8.3 µM
